Assay [1] concerns the target T1, HHLA2 expressed on cells (3T3 cell line expressing HHLA2; HHLA2/K562) (UniProt Q9UM44 23-414, limits assumed).
T1 construct: whole, on cells
T1 sequence (looked up): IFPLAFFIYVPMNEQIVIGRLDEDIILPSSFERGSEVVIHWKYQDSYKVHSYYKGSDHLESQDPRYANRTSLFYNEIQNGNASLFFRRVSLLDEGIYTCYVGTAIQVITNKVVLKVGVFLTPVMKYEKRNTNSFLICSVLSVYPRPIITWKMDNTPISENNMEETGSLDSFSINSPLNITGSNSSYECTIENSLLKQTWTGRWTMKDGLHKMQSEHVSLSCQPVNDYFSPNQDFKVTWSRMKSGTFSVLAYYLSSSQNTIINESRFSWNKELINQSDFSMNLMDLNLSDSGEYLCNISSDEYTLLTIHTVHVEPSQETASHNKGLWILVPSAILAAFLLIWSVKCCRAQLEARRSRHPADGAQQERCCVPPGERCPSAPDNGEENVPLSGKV
The assay can be described thus: FACS on 3T3 cells expressing HHLA2, TMIGD2-mIg (FIGS. 3A-3B). The protocol: FIG. 3A is a chart depicting mean fluorescent intensity (MFI) of 3T3 cells expressing HHLA2 that were incubated with TMIGD2-mIg fusion polypeptide or control mIgG at the indicated concentrations prior to staining with 10 μg/ml KIR3DL3-hIg followed by Allophycocyanin (APC)-conjugated anti-human IgG Fc.
FIG. 3B is a chart depicting MFI of 3T3 cells expressing HHLA2 that were incubated with KIR3DL3-hIg fusion polypeptide or control hIgG at the indicated concentrations prior to staining with 10 μg/ml TMIGD2-mIg followed by APC anti-mouse IgG Fc.

Assay [2] deals with T2, KIR3DL2 expressed on 3T3 cells (UniProt P43630 22-455, limits assumed).
T2 construct: whole, on cells
T2 sequence (P43630 22-455 limits assumed): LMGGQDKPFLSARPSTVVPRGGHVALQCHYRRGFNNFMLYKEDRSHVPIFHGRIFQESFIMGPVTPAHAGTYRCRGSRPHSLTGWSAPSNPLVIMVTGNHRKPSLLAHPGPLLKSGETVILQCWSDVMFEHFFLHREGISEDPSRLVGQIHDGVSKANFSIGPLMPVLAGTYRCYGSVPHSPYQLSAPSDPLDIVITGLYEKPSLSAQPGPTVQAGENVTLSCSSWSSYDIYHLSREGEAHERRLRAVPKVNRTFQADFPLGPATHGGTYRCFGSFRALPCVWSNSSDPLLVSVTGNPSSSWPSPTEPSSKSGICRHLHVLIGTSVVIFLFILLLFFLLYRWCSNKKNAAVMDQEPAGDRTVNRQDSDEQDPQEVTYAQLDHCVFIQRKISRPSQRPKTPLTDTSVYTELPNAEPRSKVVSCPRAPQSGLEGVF
The assay is described as follows: FACS, HHLA2-Ig staining of 3T3 cells expressing KIR3DL2 (FIG. 2A). The source says:
(§1) FIG. 2A depicts histograms of 3T3 cell lines expressing KIR3DL1, KIR3DL2, or KIR3DL3 stained with HHLA2-Ig fusion polypeptide (open histograms) or control Ig (shaded histograms). FIG. 2B depicts a plot showing results of an intercellular conjugate assay that indicate 3T3 cell line expressing HHLA2 bound to 3T3 cell line expressing KIR3DL3, but not the control 3T3 cell line. FIG. 2C depicts histograms of a 3T3 cell line expressing HHLA2 bound by the DO domain (red) and the whole extracellular portion (red) of KIR3DL3.
(§2) Subsequent studies reported that HHLA2 is over-expressed in various types of human cancers (Cheng 2018; Cheng 2017; Koirala 2016; Janakiram 2015). To test the binding of HHLA2 to KIR3DL1, KIR3DL2, and KIR3DL3, 3T3 cell lines stable expressing cell surface KIR3DL1, KIR3DL2, or KIR3DL3 were generated.

In assay [3] the target is T3, KIR3DL1 expressed on 3T3 cells (UniProt P43629 22-444, limits assumed).
T3 construct: whole, on cells
T3 sequence (P43629 22-444 limits assumed): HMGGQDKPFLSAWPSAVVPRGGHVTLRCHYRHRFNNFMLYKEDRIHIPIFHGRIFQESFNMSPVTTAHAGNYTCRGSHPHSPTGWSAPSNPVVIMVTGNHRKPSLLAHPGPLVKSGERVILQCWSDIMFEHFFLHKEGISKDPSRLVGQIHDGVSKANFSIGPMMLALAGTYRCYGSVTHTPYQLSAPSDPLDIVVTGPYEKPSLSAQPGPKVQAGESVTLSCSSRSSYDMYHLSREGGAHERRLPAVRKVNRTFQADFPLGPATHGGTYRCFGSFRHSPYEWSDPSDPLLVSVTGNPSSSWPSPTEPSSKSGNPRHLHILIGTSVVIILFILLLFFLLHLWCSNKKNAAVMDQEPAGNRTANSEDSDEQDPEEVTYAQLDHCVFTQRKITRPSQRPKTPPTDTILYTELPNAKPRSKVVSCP
The assay is described as follows: FACS, HHLA2-Ig staining of 3T3 cells expressing KIR3DL1 (FIG. 2A).
Excerpt: as §1, §2

Assay [4] has as its target T4, KIR3DL3 expressed on cells (3T3 cell line expressing KIR3DL3); KIR3DL3+ NK92 cells; primary KIR3DL3+ NK cells … (human, UniProt Q8N743 26-410).
T4 construct: also called KIR3DL3-expressing 3T3 cells; KIR3DL3 WT
The assay can be described thus: FACS, HHLA2-Ig staining of 3T3 cells expressing KIR3DL3 (FIG. 2A).
Excerpt: as §1, §2

T4 sequence (Q8N743 26-410 H321N): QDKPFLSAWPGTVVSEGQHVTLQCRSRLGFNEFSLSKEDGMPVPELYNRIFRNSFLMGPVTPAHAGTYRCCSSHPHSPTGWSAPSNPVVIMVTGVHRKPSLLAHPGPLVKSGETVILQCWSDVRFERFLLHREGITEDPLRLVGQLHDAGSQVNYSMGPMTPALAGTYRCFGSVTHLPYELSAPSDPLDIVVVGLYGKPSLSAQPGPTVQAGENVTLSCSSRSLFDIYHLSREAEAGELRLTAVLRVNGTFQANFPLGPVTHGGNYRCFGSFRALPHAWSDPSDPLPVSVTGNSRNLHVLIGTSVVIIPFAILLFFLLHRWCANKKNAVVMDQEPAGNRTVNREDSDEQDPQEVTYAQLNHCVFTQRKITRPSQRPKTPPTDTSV

B1: TMIGD2-mIg fusion polypeptide (Fc fusion, UniProt Q96BF3 23-150, looked up)
chain: LSVQQGPNLLQVRQGSQATLVCQVDQATAWERLRVKWTKDGAILCQPYITNGSLSLGVCGPQGRLSWQAPSHLTLQLDPVSLNHSGAYVCWAAVEIPELEEAEGNITRLFVDPDDPTQNRNRIASFPG
notes: not shown: mouse Ig part (mIg), detected with anti-mouse IgG Fc
For the molecule B1, the binding result in assay [1] is given as “binds”.

B2: HHLA2-Ig fusion polypeptide (Fc fusion, UniProt Q9UM44 23-344, looked up)
chain: IFPLAFFIYVPMNEQIVIGRLDEDIILPSSFERGSEVVIHWKYQDSYKVHSYYKGSDHLESQDPRYANRTSLFYNEIQNGNASLFFRRVSLLDEGIYTCYVGTAIQVITNKVVLKVGVFLTPVMKYEKRNTNSFLICSVLSVYPRPIITWKMDNTPISENNMEETGSLDSFSINSPLNITGSNSSYECTIENSLLKQTWTGRWTMKDGLHKMQSEHVSLSCQPVNDYFSPNQDFKVTWSRMKSGTFSVLAYYLSSSQNTIINESRFSWNKELINQSDFSMNLMDLNLSDSGEYLCNISSDEYTLLTIHTVHVEPSQETASHN
notes: also called HHLA2 protein; not shown: Ig part
For B2, the binding result in assay [2] was “no binding”; in assay [3] it was “no binding”; in assay [4] it was “binds”.

(Values after US20230040568A1 (ALBERT EINSTEIN COLLEGE OF MEDICINE, published 2023).)
